Test results reported in article PMC9482650, “Quantitative fragmentomics allow affinity mapping of interactomes” (Nature Communications, 2022).

T1: APBA2_1, Q99767
T1 sequence (Q99767 563-664, limits assumed, looked up): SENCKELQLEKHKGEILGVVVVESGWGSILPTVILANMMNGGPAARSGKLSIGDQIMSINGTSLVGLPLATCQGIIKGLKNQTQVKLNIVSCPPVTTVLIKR

T2: APBA2_2, Q99767
T2 sequence (Q99767 654-744, limits assumed, looked up): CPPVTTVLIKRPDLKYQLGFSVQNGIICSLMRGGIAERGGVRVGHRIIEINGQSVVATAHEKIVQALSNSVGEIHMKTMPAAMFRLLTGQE

T3: ARHGEF11, O15085
T3 sequence (O15085 42-136, limits assumed, looked up): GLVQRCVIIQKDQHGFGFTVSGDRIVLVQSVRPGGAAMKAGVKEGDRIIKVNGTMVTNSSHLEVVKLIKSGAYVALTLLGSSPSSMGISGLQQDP

T4: DFNB31_1, Q9P202
T4 sequence (Q9P202 135-233, limits assumed, looked up): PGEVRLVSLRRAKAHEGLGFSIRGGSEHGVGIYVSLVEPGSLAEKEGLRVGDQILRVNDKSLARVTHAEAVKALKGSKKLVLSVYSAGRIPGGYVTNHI

T5: DLG3_3, Q92796
T5 sequence (Q92796 374-475, limits assumed, looked up): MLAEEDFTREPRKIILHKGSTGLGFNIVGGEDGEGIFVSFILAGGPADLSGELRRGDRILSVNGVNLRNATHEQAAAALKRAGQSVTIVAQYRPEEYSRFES

T6: GRIP1_2, Q9Y3R0
T6 sequence (Q9Y3R0 145-248, limits assumed, looked up): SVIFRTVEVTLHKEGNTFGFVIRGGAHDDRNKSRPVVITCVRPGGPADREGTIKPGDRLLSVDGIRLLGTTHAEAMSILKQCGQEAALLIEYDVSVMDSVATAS

T7: GRIP1_3, Q9Y3R0
T7 sequence (Q9Y3R0 247-346, limits assumed, looked up): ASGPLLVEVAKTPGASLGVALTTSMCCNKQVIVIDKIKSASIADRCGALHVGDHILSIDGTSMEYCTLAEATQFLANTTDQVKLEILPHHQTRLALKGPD

T8: GRIP1_7, Q9Y3R0
T8 sequence (Q9Y3R0 999-1096, limits assumed, looked up): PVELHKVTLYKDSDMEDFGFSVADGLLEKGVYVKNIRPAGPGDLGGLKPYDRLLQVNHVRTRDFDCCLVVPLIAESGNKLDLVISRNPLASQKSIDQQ

T9: LNX2_3, Q8N448
T9 sequence (Q8N448 463-564, limits assumed, looked up): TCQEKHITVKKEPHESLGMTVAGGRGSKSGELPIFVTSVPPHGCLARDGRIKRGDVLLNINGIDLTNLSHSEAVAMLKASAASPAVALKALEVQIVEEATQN

T10: MPP2, Q14168
T10 sequence (Q14168 180-250, limits assumed, looked up): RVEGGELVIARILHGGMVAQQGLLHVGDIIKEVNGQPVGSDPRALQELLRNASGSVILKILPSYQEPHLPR

T11: MPP6, Q9NZW5
T11 sequence (Q9NZW5 125-219, limits assumed, looked up): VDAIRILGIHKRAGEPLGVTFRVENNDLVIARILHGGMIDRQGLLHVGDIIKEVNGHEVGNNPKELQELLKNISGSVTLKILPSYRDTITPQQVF

T12: NHERF3_4, Q5T2W1
T12 sequence (Q5T2W1 373-468, limits assumed, looked up): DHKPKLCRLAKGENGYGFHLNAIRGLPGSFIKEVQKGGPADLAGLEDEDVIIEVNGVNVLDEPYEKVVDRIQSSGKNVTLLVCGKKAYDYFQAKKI

T13: SNTB1, Q13884
T13 sequence (Q13884 107-205, limits assumed, looked up): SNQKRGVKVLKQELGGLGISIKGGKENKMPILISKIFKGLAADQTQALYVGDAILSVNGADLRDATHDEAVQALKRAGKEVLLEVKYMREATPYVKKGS


Columns and labels:
Assay in all cases: holdup assay
Set-up in all cases: key: below the threshold = too weak to quantify, mostly under pKd 3.1 to 4
Details in all cases: plain residues with an end cap or a label only (N-terminal biotin on a linker: ado-ado)
APBA2_1, Q99767 = target: T1, APBA2_1, Q99767
APBA2_2, Q99767 = target: T2, APBA2_2, Q99767
ARHGEF11, O15085 = target: T3, ARHGEF11, O15085
CASK, O14936 = target: CASK, O14936
DFNB31_1, Q9P202 = target: T4, DFNB31_1, Q9P202
DLG1_3, Q12959 = target: DLG1_3, Q12959
DLG3_3, Q92796 = target: T5, DLG3_3, Q92796
DLG4_1, P78352 = target: DLG4_1, P78352
GIPC2, Q8TF65 = target: GIPC2, Q8TF65
GORASP2, Q9H8Y8 = target: GORASP2, Q9H8Y8
GRID2IP_1, A4D2P6 = target: GRID2IP_1, A4D2P6
GRIP1_2, Q9Y3R0 = target: T6, GRIP1_2, Q9Y3R0
GRIP1_3, Q9Y3R0 = target: T7, GRIP1_3, Q9Y3R0
GRIP1_7, Q9Y3R0 = target: T8, GRIP1_7, Q9Y3R0
IL16_4, Q14005 = target: IL16_4, Q14005
LNX1_3, Q8TBB1 = target: LNX1_3, Q8TBB1
LNX2_3, Q8N448 = target: T9, LNX2_3, Q8N448
MAST2, Q6P0Q8 = target: MAST2, Q6P0Q8
MPP2, Q14168 = target: T10, MPP2, Q14168
MPP6, Q9NZW5 = target: T11, MPP6, Q9NZW5
NHERF3_4, Q5T2W1 = target: T12, NHERF3_4, Q5T2W1
NOS1, P29475 = target: NOS1, P29475
SNTB1, Q13884 = target: T13, SNTB1, Q13884
TJP1_3, Q07157 = target: TJP1_3, Q07157
Chain of TJP1_3, Q07157 (Q07157 416-512): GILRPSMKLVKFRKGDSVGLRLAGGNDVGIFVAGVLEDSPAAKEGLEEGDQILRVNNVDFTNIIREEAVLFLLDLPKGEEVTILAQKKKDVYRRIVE

Chain of DLG1_3, Q12959 (Q12959 457-571): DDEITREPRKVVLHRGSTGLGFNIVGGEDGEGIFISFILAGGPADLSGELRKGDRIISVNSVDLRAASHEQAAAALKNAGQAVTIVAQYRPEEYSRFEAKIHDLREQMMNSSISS
Chain of CASK, O14936 (O14936 487-570): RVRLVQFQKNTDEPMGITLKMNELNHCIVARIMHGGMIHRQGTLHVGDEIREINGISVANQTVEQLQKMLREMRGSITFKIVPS
Chain of GRID2IP_1, A4D2P6 (A4D2P6 1-87): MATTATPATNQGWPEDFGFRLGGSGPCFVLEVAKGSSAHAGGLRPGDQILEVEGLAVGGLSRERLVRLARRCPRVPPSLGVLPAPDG
Chain of DLG4_1, P78352 (P78352 62-152): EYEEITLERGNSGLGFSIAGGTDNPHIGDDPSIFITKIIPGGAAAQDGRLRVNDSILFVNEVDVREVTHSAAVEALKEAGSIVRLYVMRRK
Chain of GIPC2, Q8TF65 (Q8TF65 112-203): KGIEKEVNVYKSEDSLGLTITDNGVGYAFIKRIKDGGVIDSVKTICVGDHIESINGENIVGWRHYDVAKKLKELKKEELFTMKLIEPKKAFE
Chain of IL16_4, Q14005 (Q14005 1229-1329): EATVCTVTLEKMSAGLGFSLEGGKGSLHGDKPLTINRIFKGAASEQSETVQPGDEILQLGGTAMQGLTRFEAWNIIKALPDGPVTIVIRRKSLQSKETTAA
Chain of NOS1, P29475 (P29475 9-101): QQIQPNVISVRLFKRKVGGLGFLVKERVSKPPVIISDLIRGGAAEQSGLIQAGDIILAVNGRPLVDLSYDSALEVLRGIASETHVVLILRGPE
Chain of LNX1_3, Q8TBB1 (Q8TBB1 500-596): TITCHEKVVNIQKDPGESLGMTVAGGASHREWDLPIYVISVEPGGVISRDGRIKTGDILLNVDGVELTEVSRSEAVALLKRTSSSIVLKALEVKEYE
Chain of MAST2, Q6P0Q8 (Q6P0Q8 1099-1202): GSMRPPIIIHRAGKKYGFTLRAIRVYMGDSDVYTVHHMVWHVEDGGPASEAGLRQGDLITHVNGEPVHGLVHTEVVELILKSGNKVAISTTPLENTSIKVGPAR

pKd (APBA2_1, Q99767) | pKd (APBA2_2, Q99767) | pKd (ARHGEF11, O15085) | pKd (CASK, O14936) | pKd (DFNB31_1, Q9P202) | pKd (DLG1_3, Q12959) | pKd (DLG3_3, Q92796) | pKd (DLG4_1, P78352) | pKd (GIPC2, Q8TF65) | pKd (GORASP2, Q9H8Y8) | pKd (GRID2IP_1, A4D2P6) | pKd (GRIP1_2, Q9Y3R0) | pKd (GRIP1_3, Q9Y3R0) | pKd (GRIP1_7, Q9Y3R0) | pKd (IL16_4, Q14005) | pKd (LNX1_3, Q8TBB1) | pKd (LNX2_3, Q8N448) | pKd (MAST2, Q6P0Q8) | pKd (MPP2, Q14168) | pKd (MPP6, Q9NZW5) | Binder | further results
below the threshold | below the threshold | below the threshold | below the threshold | below the threshold | below the threshold | below the threshold | below the threshold | below the threshold | below the threshold | below the threshold | below the threshold | below the threshold | below the threshold | 3.5 | below the threshold | below the threshold | below the threshold | below the threshold | below the threshold | NNNVVKVDSV [MTNR1A, P48039] | pKd (NHERF3_4, Q5T2W1): below the threshold; pKd (NOS1, P29475): 3.86; pKd (SNTB1, Q13884): below the threshold; pKd (TJP1_3, Q07157): below the threshold
below the threshold | 3.6 | 3.58 | below the threshold | below the threshold | 3.93 | below the threshold | below the threshold | below the threshold | 4.18 | below the threshold | below the threshold | below the threshold | below the threshold | below the threshold | below the threshold | below the threshold | 4.35 | below the threshold | below the threshold | NVYGIESVKI [GRIA2, P42262] | pKd (NHERF3_4, Q5T2W1): 3.75; pKd (NOS1, P29475): 3.71; pKd (SNTB1, Q13884): 3.51; pKd (TJP1_3, Q07157): 3.62
below the threshold | below the threshold | 4.06 | below the threshold | below the threshold | below the threshold | 3.75 | 4.06 | below the threshold | 3.55 | below the threshold | below the threshold | below the threshold | below the threshold | below the threshold | below the threshold | below the threshold | 5.5 | below the threshold | 3.59 | PSHPRLQTHV [KIRREL2, Q6UWL6] | pKd (NHERF3_4, Q5T2W1): below the threshold; pKd (NOS1, P29475): below the threshold; pKd (SNTB1, Q13884): 3.48; pKd (TJP1_3, Q07157): below the threshold
below the threshold | below the threshold | 5.01 | below the threshold | 4.39 | 3.99 | 3.85 | 3.76 | below the threshold | below the threshold | below the threshold | 3.5 | below the threshold | 3.56 | 3.78 | below the threshold | 3.49 | 5.88 | below the threshold | below the threshold | GIKKITSTAL [RPS6KA3, P51812] | pKd (NHERF3_4, Q5T2W1): 5.4; pKd (NOS1, P29475): 4.03; pKd (SNTB1, Q13884): 4.23; pKd (TJP1_3, Q07157): below the threshold
below the threshold | below the threshold | 3.64 | below the threshold | 3.55 | below the threshold | below the threshold | below the threshold | below the threshold | 4.46 | below the threshold | below the threshold | below the threshold | below the threshold | below the threshold | 4.28 | below the threshold | 4.68 | below the threshold | below the threshold | DFLSTFHIRI [CIB2, O75838] | pKd (NHERF3_4, Q5T2W1): 3.66; pKd (NOS1, P29475): below the threshold; pKd (SNTB1, Q13884): below the threshold; pKd (TJP1_3, Q07157): below the threshold
below the threshold | below the threshold | 3.79 | below the threshold | below the threshold | below the threshold | below the threshold | below the threshold | below the threshold | below the threshold | below the threshold | below the threshold | below the threshold | below the threshold | below the threshold | below the threshold | below the threshold | 4.89 | below the threshold | below the threshold | TISFTQTSQF [SLC1A1, P43005] | pKd (NHERF3_4, Q5T2W1): 4.41; pKd (NOS1, P29475): 3.53; pKd (SNTB1, Q13884): below the threshold; pKd (TJP1_3, Q07157): below the threshold
